Literature values in publication PMC3417354.

Target: PCNA (Homo sapiens) (UniProt P12004)
Sequence (P12004 whole entry): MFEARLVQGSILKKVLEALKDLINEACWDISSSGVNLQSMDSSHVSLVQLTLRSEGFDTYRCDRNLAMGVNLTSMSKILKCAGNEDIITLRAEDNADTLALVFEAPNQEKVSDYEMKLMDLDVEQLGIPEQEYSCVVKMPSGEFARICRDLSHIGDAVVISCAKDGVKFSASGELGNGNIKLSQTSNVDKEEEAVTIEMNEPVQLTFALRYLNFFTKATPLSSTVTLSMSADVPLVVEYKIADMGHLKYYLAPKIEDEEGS

Chain of p21 peptide 141-160 (P38936 141-160): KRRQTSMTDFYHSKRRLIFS

Kd: 88 nM
Substance: p21 peptide 141-160 (from UniProt P38936)
